Here are results for three substances from US20070292390A1.

In experiment [1] the target is tethered gp140 89.6 (HIV-1 isolate 89.6) (UniProt Q73372). Kind of experiment: competition ELISA; competitor (coated): Fab m45; biotinylated gp140 89.6; competing antibody at 12 µg/ml.
Experiment [2] shares this target. Briefly: competition ELISA; competitor (coated): Fab m48; biotinylated gp140 89.6; competing antibody at 12 µg/ml.
Experiment [3] has the same target. Kind of experiment: competition ELISA; competitor (coated): Fab m44; biotinylated gp140 89.6; competing antibody at 12 µg/ml.
Experiment [4] shares this target. Briefly: competition ELISA; competitor (coated): Fab m43; biotinylated gp140 89.6; competing antibody at 12 µg/ml.
Experiment [5] shares this target. Briefly: competition ELISA; competitor (coated): Fab m47; biotinylated gp140 89.6; competing antibody at 12 µg/ml.

With Fab Z13, the Inhibition, % in experiment [1] turned out to be 0%; in experiment [2], 87%; in experiment [3], 57%; in experiment [4] it was 72%; in experiment [5] it was 41%.

For IgG 2F5 (antibody), the Inhibition, % was 0% in experiment [1]; 74% in experiment [2]; 38% in experiment [3]; 51% in experiment [4]; 31% in experiment [5].

On to IgG 4E10 (antibody), for which the Inhibition, % in experiment [1] turned out to be 6%; in experiment [2], 63%; in experiment [3], 42%; in experiment [4], 29%; in experiment [5], 10%.
